Experiment: protease stability score; higher = more stable; yeast display proteolysis, trypsin and chymotrypsin;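 note: log10 excess protease needed over predicted unfolded state with 0 meaning unfolded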

| Sequence | protease stability score |
| --- | --- |
| DETTVHHILKNFNEAMEQGDPKQAMRLADKDVKLDVGDKRVSGSETLDTLVKNIRDQADTISVKTVHVDGDTAHAVLVIRINGKDVEFNVRIEVHNGRIKSLEMDPDKLKSAMK | 0.852 |
| DHQDARKVRKNFEDNNFESFKSMFDENAEVRVGDKELHGKENIRDQIRKEKEQIDHVQYRSFHVQGEKVDLKYEFQVNGRHIDVRASAELKNGRIKTHSVEVTTEEDKKLLKEVLQ | -0.271 |
| DEDDRKRVAKEFMDNLNTGNEDEALKLADKDARLRYGDKTLHGREQIKDWLHTLRERIDSIEVHRIEVQGDKVRVRASVVINGKEEMVDINFRMSNGRLEKVTFDPRLDEMLKG | 1.44 |
| DEEAYRLFSEMEKARKDNDEEKLRELADEDVRFEVGDSVIKGMTRWATRVVQTAREQRFSYDIKRWHIEGDKVVVHREVRESHNGQPRSRTVVYRAHVDNGRVKSVTVEDTG | 0.158 |
| DEEWEETMTRLVKTGDFQSLVRLAPEDVKYVVGEKRIHGREHASEFAKKLTEQIDRIQVKEMHVSGDRVRADFELEFNGRKLKAVLVVKIHGDKVREVMIEVTDEHDEDILREIDD | 0.8 |
| DEEQVNKVRTLVESNDEKTMQELADPNAKAEIGNKRFHGMHRAAHVLTKLRKQADTVRYREIDVHNGQVHAHFSMHFNGKRIDARVVLKVRNGRLRHMKIEATDPHLEEELERQVQ | 0.268 |
| DEDHVQDKAEDLARAIQRGDEDRMNELFDENVKVQVGDKTIHGRENVVDHMREQNEQADRIEIKSITATGDKIRIEMVVVHNGQNTHVVFEVKWENGKIKHMTQKTE | 1.94 |
| DQEEAKKIVDKMLKAVENGNEEDLVKMGADGVEYRAGDKKAHGPEAIQEVVQYLKRKGVEVEVKEVQVKGDKAQTHVDYKVGNETMTATANATLKGGKIDRVEIDFDETLKKVIKDG | 0.154 |
| EEDKLEHMTKLMTQNDEDRWEELADKNVRIEVGDYRVNGREQASSYLKLLKDQVDDYTVNHIHYQGDKIVANVQASVNGRRFRFQIRITVHNGRLKSMMVKVTDEHFKHVLKNIVG | 0.698 |
| DEHNVELARKLRSAVEKNSEKEAKNNIDKDVRAQYGDQEINGREHFAEWVQRLTHHIQWEIKSVTVRVTNGRVDVKMHVREEQNGKPREMDVKMTVVFDNGRIENVQVKKHG | 0.448 |
| DEEAFKRFKEMVDAIRTGDRDRVRRLADPNARFEVGDKEVRGMDDYARKIKRKRDEIRMRYQIDSYSKSGDKVVARVQVEVEHNGQPSSHVYRAEFKNSNGRIVELNVKTDS | 0.275 |
| DEENRKILSEVLQALQEGDEHRVRELMDPNARFQVGDKVITGMDNIKKHLQELKRQIKWHFTMKSISAHDGQARATADAEYNHNGRPQDVRVTFRVVFHNGEVHHFSYDYKP | 0.583 |
| DEDTIRKVNRSFLEAVQHNDDDTLRRLLDEDAHAQYGDKTVHGKTEVVKMILTFVEQVDSLDYKSITATGDHVDVKVDAKHNGRTLDVRIIMRIENGRFTHVQFDIR | 0.075 |
| DEEKKARQLLKRWLRAVSQNDPKKLSEQMDPNARVEYGDKELHGMHQIENWLREQLKHIDHIEIDVKDMTVNGNEAQVQFRFVNRHNGKEDTKEARMQAELHNGTVKVRRIRYS | 0.389 |
| DERDRRVMEDFFRALEEGDPDTLRQNMDKDAKLVIGDKTYHGREEIATRIVQHIEHAHVRMRVDSIRAHNGRVEVNVTFMVNHNGRPRSDRMNVEAVIRNGKIKELHLVTEK | -0.131 |
| DEEQMKKVVEQLLQALQNKDPEKIVQLVDEDVEFTLVDEKYKGHEDVRKLVKKLVDAGAEFRIDRHEATGDQAHVDTQWKVGDYTLKVTVTYVVRDDKVEKVEIRWSEEAKKAMKEG | 1.11 |
| DDEDADRMVKLIRTNDPETFARQMDPNARVEVGDKKVHGREEALKLLSELYNQADHFQVKSISRHNGRVTVDAILVVNGRTMRARIEVVVHNGRVKSARVKFTNPEDQKQMRRNVQ | -0.185 |

Reference: the NTF2 design screens of Basanta et al. (2020)
